Measurements reported in article PMC7714071, “Interaction of amyloid beta with humanin and acetylcholinesterase is modulated by ATP” (FEBS Open Bio, 2020).

Key:
[1] = system: Aβ from H1299 cell-conditioned media; assay: ELISA, HN (endogenous and exogenously added) and AChE bound to Aβ from H1299 media on 82E1 antibody; type: binding, human; conditions: H1299 cell-conditioned media, 82E1; Fig. 6
Procedure: Human NSCLC cell lines, A549 (ATCC CCL‐185) and H1299 (ATCC CRL‐5803), were purchased from the American Type Culture Collection (ATCC, Manassas, VA, USA). Cells were seeded as we reported earlier in 5 mL HyClone Dulbecco's modified Eagle's medium/nutrient mixture F‐12 (DMEM/F12) (GE Healthcare Life Sciences, Pittsburgh, PA, USA), supplemented with 10% Fetalgro bovine growth serum (FBS; RMBIO, Missoula, MT, USA), 50 U·mL^−1 penicillin, and […] streptomycin (Invitrogen, Life Technologies, Carlsbad, CA, USA) in 25‐cm^2 tissue culture flasks, and allowed to grow overnight in an incubator at 37 °C, 95% humidity, and 5% CO2. The cells were counted after trypan blue staining, with a hemocytometer.
ELISAs were carried out as we previously reported. […] TBST was then used to wash the wells 4× before proceeding in one of two ways: (a) biotinylated samples were analyzed by adding 100 µL streptavidin–HRP conjugate in TBST (1 : 2500 dilution) to the samples followed by incubation for 3 h at RT on a shaker, or (b) samples without biotin were analyzed by adding 100 µL TBST containing the primary antibody as per the manufacturer's recommendation, incubating for 3 h at RT on a shaker, followed by washing the wells 4× with TBST. […] The reaction was stopped with 100 µL 2 M H2SO4 after incubating at RT for 0.5–15 min, resulting in a yellow color change, measured by absorbance at 450 nm. […]

[2] = system: Aβ42; conditions: cited from earlier work
Text: Almost all types of cells produce amyloid beta (Aβ), a peptide well recognized for its role in the development and progression of different stages of Alzheimer's disease (AD). The Aβ peptide is ~ 4 kDa and derived from the sequential processing of the higher molecular weight amyloid precursor protein by two membrane‐bound endoproteases, β‐ and γ‐secretase. Different C‐terminal Aβ heterogeneity results from processing by γ‐secretase, where Aβ40 represents the most abundant isoform (~ 90%) as compared to Aβ42 (~ 10%). Self‐assembled Aβ40/42 peptides into amyloid fib ... || Amino acid residues involved in direct interactions between HN and Aβ40 were identified previously by molecular modeling. The specific epitopes at the binding interface between HN and Aβ40 were identified, by proteolytic epitope excision and extraction in addition to affinity–mass spectrometric data analysis, to be HN (5–15) and Aβ (17–28). […] Inhibiting the 17–28 region of Aβ reduced aggregation of the neurotoxic amyloid fibrils and related cytotoxicity in SH‐SY5Y, a human neuroblastoma cell ... || Acetylcholinesterase (AChE) is an enzyme known for its role in terminating acetylcholine‐mediated neurotransmission at the synaptic cleft. The majority of the cortical AChE in the Alzheimer's brain is mainly associated with the amyloid core of senile plaques. […]

[3] = system: Aβ cytotoxicity; conditions: versus Aβ aggregates alone; cited from earlier work
Text: Almost all types of cells produce amyloid beta (Aβ), a peptide well recognized for its role in the development and progression of different stages of Alzheimer's disease (AD). The Aβ peptide is ~ 4 kDa and derived from the sequential processing of the higher molecular weight amyloid precursor protein by two membrane‐bound endoproteases, β‐ and γ‐secretase. Different C‐terminal Aβ heterogeneity results from processing by γ‐secretase, where Aβ40 represents the most abundant isoform (~ 90%) as compared to Aβ42 (~ 10%). Self‐assembled Aβ40/42 peptides into amyloid fib ... || Soluble oligomers of proteins implicated in different diseases are primarily thought to be the main toxic form as opposed to the larger fibrillar assemblies. Aβ regions containing Tyr and Ser (H6DSGY10 and G25SNKG29) (Fig. 1) along with post‐translational modifications of these regions, have been implicated in misfolding, oligomerization, or fibril formation of Aβ [5, 10, 11, 16, 41]. […] Aβ proteins a ... || Acetylcholinesterase (AChE) is an enzyme known for its role in terminating acetylcholine‐mediated neurotransmission at the synaptic cleft. The majority of the cortical AChE in the Alzheimer's brain is mainly associated with the amyloid core of senile plaques. […]

B1: acetylcholinesterase (protein)
chain: EGREDAELLVTVRGGRLRGIRLKTPGGPVSAFLGIPFAEPPMGPRRFLPPEPKQPWSGVVDATTFQSVCYQYVDTLYPGFEGTEMWNPNRELSEDCLYLNVWTPYPRPTSPTPVLVWIYGGGFYSGASSLDVYDGRFLVQAERTVLVSMNYRVGAFGFLALPGSREAPGNVGLLDQRLALQWVQENVAAFGGDPTSVTLFGESAGAASVGMHLLSPPSRGLFHRAVLQSGAPNGPWATVGMGEARRRATQLAHLVGCPPGGTGGNDTELVACLRTRPAQVLVNHEWHVLPQESVFRFSFVPVVDGDFLSDTPEALINAGDFHGLQVLVGVVKDEGSYFLVYGAPGFSKDNESLISRAEFLAGVRVGVPQVSDLAAEAVVLHYTDWLHPEDPARLREALSDVVGDHNVVCPVAQLAGRLAAQGARVYAYVFEHRASTLSWPLWMGVPHGYEIEFIFGIPLDPSRNYTAEEKIFAQRLMRYWANFARTGDPNEPRDPKAPQWPPYTAGAQQYVSLDLRPLEVRRGLRAQACAFWNRFLPKLLSATDTLDEAERQWKAEFHRWSSYMVHWKNQFDHYSKQDRCSDL
[1]
  AChE bound to Aβ: barely detectable levels
[2]
  effect on Aβ42 oligomeric formation: increases Aβ42 oligomeric formation
[3]
  toxicity of AChE-amyloid complexes: Higher toxicity
